In US20040038290A1 (ROCKEFELLER UNIVERSITY, published 2004):

Tests used:
[1] = molecular target: E. coli Pol III (Escherichia coli) (UniProt P10443); experiment: cell-based or functional assay
[2] = molecular target: human DNA polymerase delta (human) (UniProt P28340); experiment: cell-based or functional assay
[3] = molecular target: Thermus thermophilus DNA polymerase III purified from T.th. cell extracts; experiment: cell-based or functional assay
[4] = molecular target: T1, Aquifex aeolicus α subunit of DNA polymerase III (Aquifex aeolicus, UniProt O67125 1-1161); experiment: complex constitution from pure subunits, column chromatography
T1 construct: Recombinant, expressed in E. coli from pETAadnaE (pET24); also called A.ae. α; Aquifex α
T1 sequence: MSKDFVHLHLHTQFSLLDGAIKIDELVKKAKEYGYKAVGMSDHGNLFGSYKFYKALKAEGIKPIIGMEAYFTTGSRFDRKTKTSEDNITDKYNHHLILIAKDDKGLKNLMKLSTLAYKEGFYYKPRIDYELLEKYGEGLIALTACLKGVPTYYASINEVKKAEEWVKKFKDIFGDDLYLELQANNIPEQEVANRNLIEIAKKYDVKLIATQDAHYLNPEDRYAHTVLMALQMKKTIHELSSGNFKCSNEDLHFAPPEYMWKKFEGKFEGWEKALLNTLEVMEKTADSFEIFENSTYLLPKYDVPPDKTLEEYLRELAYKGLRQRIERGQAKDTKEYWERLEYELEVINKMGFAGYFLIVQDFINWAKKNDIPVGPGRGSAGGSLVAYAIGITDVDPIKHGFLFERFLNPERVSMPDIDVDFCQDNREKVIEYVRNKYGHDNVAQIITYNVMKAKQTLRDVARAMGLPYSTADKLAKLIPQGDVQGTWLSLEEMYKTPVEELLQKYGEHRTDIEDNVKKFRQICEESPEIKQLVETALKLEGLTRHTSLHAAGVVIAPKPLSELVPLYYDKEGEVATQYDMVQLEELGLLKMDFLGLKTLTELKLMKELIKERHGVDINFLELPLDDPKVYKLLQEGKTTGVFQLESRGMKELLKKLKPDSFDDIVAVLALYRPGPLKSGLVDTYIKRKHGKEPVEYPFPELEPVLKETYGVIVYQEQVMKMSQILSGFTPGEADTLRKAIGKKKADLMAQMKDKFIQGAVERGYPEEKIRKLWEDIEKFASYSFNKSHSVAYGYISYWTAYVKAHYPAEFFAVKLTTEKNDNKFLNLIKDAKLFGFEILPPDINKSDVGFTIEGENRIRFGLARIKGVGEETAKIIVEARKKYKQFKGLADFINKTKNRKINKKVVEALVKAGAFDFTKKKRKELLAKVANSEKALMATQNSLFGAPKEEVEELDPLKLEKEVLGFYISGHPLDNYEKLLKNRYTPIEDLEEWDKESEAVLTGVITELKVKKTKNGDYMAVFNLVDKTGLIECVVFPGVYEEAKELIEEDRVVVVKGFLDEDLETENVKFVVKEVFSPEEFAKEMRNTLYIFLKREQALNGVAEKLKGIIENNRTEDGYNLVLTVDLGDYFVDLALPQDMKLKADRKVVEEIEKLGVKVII

Sequence of E. coli Pol III (Escherichia coli) (P10443 whole entry): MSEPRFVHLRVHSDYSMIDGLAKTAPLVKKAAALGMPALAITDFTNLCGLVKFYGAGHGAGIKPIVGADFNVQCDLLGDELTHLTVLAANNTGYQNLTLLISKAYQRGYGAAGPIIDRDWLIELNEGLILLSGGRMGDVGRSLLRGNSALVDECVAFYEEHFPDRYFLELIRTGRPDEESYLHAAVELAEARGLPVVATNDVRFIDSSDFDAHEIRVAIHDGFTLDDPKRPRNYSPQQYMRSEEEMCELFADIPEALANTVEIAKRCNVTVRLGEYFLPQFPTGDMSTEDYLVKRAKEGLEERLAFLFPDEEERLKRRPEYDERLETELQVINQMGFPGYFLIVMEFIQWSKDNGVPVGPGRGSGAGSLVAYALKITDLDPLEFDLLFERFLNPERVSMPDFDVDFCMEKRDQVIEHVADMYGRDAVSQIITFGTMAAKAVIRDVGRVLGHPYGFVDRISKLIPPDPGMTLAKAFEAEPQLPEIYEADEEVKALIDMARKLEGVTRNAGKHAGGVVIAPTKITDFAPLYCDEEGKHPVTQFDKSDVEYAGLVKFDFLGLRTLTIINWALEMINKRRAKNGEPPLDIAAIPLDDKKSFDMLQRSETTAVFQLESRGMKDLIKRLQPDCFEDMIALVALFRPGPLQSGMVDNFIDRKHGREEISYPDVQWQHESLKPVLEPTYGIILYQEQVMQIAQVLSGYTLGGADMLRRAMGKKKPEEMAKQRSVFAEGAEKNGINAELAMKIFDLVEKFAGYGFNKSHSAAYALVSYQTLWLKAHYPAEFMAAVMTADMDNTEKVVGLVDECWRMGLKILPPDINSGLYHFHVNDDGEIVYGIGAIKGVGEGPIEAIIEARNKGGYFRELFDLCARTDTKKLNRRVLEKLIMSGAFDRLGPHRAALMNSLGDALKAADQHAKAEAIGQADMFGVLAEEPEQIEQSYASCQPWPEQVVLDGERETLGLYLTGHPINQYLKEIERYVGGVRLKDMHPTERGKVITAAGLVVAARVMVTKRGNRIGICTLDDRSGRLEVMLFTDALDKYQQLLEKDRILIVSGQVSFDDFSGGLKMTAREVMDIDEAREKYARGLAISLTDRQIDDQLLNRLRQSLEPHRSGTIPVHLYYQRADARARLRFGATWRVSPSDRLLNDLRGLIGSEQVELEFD
Sequence of human DNA polymerase delta (human) (P28340 whole entry, stated change not applied): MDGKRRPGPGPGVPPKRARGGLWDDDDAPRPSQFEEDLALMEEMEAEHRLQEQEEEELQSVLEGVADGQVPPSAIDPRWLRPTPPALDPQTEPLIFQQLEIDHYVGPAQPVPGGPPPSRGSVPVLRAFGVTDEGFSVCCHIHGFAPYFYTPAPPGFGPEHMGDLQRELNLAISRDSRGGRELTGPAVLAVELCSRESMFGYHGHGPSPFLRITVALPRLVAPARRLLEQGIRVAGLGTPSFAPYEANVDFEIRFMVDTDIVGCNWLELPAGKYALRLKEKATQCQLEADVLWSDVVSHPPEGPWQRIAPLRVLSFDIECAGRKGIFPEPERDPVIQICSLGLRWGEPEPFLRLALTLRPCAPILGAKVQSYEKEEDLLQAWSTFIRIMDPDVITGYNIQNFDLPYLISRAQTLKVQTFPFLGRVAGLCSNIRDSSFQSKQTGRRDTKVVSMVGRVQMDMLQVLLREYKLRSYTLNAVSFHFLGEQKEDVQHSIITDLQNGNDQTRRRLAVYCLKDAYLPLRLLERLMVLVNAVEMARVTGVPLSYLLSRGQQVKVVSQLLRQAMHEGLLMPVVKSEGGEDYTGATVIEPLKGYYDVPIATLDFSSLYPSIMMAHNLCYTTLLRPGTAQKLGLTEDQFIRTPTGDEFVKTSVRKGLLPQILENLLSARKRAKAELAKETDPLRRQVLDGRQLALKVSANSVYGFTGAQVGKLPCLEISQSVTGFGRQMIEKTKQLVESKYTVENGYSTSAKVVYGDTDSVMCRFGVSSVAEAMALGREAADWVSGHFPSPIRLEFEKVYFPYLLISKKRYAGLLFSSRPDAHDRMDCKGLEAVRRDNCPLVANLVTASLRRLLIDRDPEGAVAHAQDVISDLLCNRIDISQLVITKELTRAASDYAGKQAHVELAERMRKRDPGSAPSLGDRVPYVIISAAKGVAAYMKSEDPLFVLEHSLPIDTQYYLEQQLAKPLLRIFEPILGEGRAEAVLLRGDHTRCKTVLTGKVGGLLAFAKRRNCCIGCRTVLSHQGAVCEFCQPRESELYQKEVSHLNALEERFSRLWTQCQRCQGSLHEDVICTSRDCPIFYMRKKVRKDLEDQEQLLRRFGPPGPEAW

E. coli β subunit (from UniProt P0A988 1-366)
pmol synthesis on oligodT-primed linear polydA, E. coli Pol III with β (lane 2) [1]: 35 pmol
pmol synthesis on oligodT-primed linear polydA, E. coli Pol III without β (lane 1, baseline) [1]: 6 pmol

human PCNA (from UniProt P12004 1-261)
pmol synthesis on oligodT-primed linear polydA, human Polδ with PCNA (lane 4) [2]: 24 pmol
pmol synthesis on oligodT-primed linear polydA, human Polδ without PCNA (lane 3, baseline) [2]: 2 pmol

B1: Thermus thermophilus β subunit, recombinant (protein)
chain: MNITVPKKLLSDQLSLLERIVPSRSANPLYTYLGLYAEEGALILFGTNGEVDLEVRLPAEAQSLPRVLVPAQPFFQLVRSLPGDLVALGLASEPGQGGQLELSSGRFRTRLSLAPAEGYPELLVPEGEDKGAFPLRTRMPSGELVKALTHVRYAASNEEYRAIFRGVQLEFSPQGFRAVASDGYRLALYDLPLPQGFQAKAVVPARSVDEMVRVLKGADGAEAVLALGEGVLALALEGGSGVRMALRLMEGEFPDYQRVIPQEFALKVQVEGEALREAVRRVSVLSDRQNHRVDLLLEEGRILLSAEGDYGKGQEEVPAQVEGPDMAVAYNARYLLEALAPVGDRAHLGISGPTSPSLIWGDGEGYRAVVVPLRVZ
pmol synthesis on oligodT-primed linear polydA, T.th. Pol III with T.th. β (lane 6) [3]: 1.9 pmol
pmol synthesis on oligodT-primed linear polydA, T.th. Pol III without T.th. β (lane 5, baseline) [3]: 0.6 pmol

B2: Aquifex aeolicus tau subunit of DNA polymerase III (other)
chain: MNYVPFARKYRPKFFREVIGQEAPVRILKNAIKNDRVAHAYLFAGPRGVGKTTIARILAKALNCKNPSKGEPCGECENCREIDRGVFPDLIEMDAASNRGIDDVRALKEAVNYKPIKGKYKVYIIDEAHMLTKEAFNALLKTLEEPPPRTVFVLCTTEYDKILPTILSRCQRIIFSKVRKEKVIEYLKKICEKEGIECEEGALEVLAHASEGCMRDAASLLDQASVYGEGRVTKEVVENFLGILSQESVRSFLKLLLNSEVDEAIKFLRELSEKGYNLTKFWEMLEEEVRNAILVKSLKNPESVVQNWQDYEDFKDYPLEALLYVENLINRGKVEARTREPLRAFELAVIKSLIVKDIIPVSQLGSVVKETKKEEKKVEVKEEPKVKEEKPKEQEEDRFQKVLNAVDGKILKRILEGAKREERDGKIVLKIEASYLRTMKKEFDSLKETFPFLEFEPVEDKKKPQKSSGTRLF
notes: Recombinant, expressed in E. coli from pETAadnaX (pET24); also called A.ae. tau
binding result [4]: binds
